This is an account of results in US6429305.

The experiment has as its target growth hormone receptor on ZFL cells (zebrafish liver cell line) (zebrafish). Nature of the experiment: cell-based or functional assay.

The substance “human growth hormone (from UniProt P01241 27-217) (ligand)” displayed an increase in cell proliferation relative to no growth hormone added (MTS-formazan conversion assay, ZFL cells) of 13.7%.
